Five molecules from patent US20210275644A1 (OCTAPHARMA, published 2021) can be followed below.

Assay [1] addresses T1, Seq11 (recombinant vWF fragment AA 1-505 of SEQ ID NO: 1 with C-terminal Strep-Tag, from HEK 293) (human, UniProt P04275 764-1268, four O-glycosylation sites 485, 492, 493, 500 occupied (core 1, core 2 and/or extended core 1, sialylated)).
T1 construct: Expressed in HEK293 / MEXi-293 cells, purified on Strep-Tactin; not shown: C-terminal Twin-Strep-tag of the pDSG vector (IBA)
Description: SIGLEC ELISA, Scatchard analysis of the binding curve (apparent KD). Background: In an ELISA, binding on a coated surface is turned into a signal by an enzyme label.

For assay [2], the target named is T1, Seq11 (recombinant vWF fragment AA …). Description: SIGLEC ELISA with Scatchard analysis (GraphPad Prism); no unit beside the number, concentration axis in µM [panel SIGLEC 9].
The target in assay [3] is T2, vWF C-terminal fragment (V8 protease digest of plasma derived vWF) (human, UniProt P04275 2129-2813, biotinylated with EZ-Link Sulfo-NHS-Biotin).
T2 construct: the real molecule is only its C-terminal part; also called C-terminal vWF fragment
T2 sequence (P04275 2129-2813 limits assumed): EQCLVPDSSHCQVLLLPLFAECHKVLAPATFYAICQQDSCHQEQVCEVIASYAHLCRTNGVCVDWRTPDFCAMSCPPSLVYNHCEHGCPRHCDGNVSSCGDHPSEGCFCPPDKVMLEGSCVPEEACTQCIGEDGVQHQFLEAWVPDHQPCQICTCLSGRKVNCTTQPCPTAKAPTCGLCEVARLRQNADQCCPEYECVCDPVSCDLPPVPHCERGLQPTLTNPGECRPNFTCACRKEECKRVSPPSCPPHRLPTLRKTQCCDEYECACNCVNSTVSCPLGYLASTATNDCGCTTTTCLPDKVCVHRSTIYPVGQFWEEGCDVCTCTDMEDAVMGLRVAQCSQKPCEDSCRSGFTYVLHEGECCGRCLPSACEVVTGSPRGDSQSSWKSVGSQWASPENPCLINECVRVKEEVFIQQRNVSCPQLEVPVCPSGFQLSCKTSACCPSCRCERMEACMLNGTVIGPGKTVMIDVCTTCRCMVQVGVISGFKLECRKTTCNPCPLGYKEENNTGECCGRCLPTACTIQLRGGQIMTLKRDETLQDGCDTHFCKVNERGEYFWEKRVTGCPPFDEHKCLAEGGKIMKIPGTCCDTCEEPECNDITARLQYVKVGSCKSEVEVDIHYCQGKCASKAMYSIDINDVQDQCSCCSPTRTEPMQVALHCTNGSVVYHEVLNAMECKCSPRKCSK
The assay can be described thus: ELISA: SIGLEC-Fc captured on a protein A plate (500 ng/well), biotinylated vWF fragment at 1 µg/mL, streptavidin-HRP, A492, single concentration.

The target in assay [4] is T3, Recombinant SIG-10 Fc-fusion protein (R&D Systems) (human, UniProt Q96LC7 17-546, limits assumed).
T3 construct: Bought from R&D Systems; Held on the plate by protein A; not shown: Fc part of the bought fusion protein
T3 sequence (looked up): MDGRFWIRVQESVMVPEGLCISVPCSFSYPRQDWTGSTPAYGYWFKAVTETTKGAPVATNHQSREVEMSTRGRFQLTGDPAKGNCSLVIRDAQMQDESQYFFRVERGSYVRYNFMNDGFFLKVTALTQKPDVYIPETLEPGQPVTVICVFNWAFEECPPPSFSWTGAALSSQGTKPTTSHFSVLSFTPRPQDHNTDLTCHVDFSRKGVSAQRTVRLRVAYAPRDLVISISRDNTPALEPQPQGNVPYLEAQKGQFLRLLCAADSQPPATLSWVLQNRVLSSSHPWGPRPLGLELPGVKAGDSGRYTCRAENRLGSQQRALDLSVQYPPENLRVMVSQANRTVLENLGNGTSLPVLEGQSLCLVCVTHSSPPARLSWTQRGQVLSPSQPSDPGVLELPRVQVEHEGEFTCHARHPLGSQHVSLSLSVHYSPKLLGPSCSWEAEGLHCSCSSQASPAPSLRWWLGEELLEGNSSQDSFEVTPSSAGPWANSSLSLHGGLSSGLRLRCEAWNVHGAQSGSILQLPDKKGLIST
The assay can be described thus: ELISA: SIGLEC-Fc captured on a protein A plate (500 ng/well), biotinylated cluster fragment at 4 µg/mL, streptavidin-HRP, A492, single concentration.

Assay [5] addresses T1, Seq11 (recombinant vWF fragment AA …). Description: SIGLEC ELISA with Scatchard analysis (GraphPad Prism); no unit beside the number, concentration axis in µM [panel SIGLEC 5].
Assay [6] addresses T4, full length plasmatic VWF (Wilate, Octapharma) (human, UniProt P04275 764-2813).
T4 construct: multimer
Description: SPR (Biacore 3000): VWF immobilised on a CM5 chip by amine coupling, FVIII injected 0.2-45 nM; mean of five measurements. (SPR reads the build-up and loss of mass on a sensor chip optically.)

The target in assay [7] is T1, Seq11 (recombinant vWF fragment AA …). The assay can be described thus: SIGLEC ELISA with Scatchard analysis (GraphPad Prism); no unit beside the number, concentration axis in µM [panel SIGLEC 7].

Where no end group is shown, it is not given here.

T1 sequence (P04275 764-1268): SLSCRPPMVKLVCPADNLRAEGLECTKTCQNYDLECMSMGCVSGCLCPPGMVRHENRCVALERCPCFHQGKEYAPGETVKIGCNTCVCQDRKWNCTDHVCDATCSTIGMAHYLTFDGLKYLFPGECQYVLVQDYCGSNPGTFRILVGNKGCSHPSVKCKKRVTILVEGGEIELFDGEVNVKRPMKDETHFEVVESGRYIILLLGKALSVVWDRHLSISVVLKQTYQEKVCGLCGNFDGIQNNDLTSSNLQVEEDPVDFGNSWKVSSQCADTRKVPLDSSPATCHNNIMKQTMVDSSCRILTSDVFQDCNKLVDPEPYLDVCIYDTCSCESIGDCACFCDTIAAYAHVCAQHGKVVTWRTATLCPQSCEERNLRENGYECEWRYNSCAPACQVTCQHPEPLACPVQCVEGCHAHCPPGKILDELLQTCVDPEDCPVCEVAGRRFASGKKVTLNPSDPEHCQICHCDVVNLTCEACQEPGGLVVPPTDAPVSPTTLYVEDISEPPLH
T4 sequence (P04275 764-2813 limits assumed): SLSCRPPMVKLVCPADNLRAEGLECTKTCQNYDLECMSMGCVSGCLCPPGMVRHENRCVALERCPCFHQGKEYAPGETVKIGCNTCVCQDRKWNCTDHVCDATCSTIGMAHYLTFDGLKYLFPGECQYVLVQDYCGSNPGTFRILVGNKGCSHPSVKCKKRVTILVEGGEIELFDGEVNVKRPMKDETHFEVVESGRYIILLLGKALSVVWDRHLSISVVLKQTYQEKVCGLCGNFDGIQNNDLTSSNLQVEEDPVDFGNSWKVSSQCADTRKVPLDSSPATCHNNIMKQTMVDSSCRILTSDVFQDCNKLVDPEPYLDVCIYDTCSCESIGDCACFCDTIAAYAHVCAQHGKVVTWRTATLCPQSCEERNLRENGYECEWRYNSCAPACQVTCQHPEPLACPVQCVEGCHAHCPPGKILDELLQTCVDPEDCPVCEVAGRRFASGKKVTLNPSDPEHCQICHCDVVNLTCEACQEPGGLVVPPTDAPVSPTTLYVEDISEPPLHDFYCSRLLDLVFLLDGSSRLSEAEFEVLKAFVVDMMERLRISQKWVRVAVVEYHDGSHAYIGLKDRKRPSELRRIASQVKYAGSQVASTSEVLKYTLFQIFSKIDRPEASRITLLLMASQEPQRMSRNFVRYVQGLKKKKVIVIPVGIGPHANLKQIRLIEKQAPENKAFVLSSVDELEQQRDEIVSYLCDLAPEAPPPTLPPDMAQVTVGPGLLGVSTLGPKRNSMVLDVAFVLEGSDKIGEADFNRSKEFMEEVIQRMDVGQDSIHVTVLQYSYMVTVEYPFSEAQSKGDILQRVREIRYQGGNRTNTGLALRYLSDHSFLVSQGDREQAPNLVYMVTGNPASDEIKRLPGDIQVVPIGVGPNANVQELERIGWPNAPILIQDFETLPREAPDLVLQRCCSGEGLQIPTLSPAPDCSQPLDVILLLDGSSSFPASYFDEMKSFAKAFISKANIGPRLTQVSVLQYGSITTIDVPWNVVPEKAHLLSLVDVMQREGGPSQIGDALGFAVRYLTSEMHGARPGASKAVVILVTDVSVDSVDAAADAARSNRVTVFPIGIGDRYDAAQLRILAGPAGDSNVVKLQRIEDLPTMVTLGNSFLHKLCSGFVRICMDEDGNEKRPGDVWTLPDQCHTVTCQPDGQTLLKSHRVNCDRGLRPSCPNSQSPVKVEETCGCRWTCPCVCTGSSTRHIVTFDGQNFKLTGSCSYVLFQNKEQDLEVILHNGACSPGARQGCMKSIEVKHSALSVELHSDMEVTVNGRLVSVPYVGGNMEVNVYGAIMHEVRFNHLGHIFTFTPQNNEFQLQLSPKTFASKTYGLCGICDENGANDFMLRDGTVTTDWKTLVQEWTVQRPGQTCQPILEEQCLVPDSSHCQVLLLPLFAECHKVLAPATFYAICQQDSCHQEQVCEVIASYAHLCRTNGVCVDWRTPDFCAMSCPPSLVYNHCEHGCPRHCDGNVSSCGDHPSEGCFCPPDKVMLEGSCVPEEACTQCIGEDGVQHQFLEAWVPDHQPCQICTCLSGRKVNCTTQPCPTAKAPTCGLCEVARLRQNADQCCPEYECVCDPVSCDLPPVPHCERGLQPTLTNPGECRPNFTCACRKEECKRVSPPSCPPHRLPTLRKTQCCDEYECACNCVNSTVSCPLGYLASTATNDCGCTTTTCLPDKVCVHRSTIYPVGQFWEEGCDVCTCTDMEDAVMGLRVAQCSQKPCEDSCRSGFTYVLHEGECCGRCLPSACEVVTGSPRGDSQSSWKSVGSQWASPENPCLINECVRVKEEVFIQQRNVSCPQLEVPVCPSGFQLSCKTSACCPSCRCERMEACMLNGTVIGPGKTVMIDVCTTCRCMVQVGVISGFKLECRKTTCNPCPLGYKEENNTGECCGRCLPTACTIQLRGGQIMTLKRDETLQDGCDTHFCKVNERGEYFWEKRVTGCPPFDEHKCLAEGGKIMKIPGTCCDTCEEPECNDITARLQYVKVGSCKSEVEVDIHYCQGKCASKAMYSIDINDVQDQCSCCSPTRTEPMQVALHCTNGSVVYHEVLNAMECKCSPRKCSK

B1: Recombinant SIG-9 Fc-fusion protein (R&D Systems) (Fc fusion)
chain: QTSKLLTMQSSVTVQEGLCVHVPCSFSYPSHGWIYPGPVVHGYWFREGANTDQDAPVATNNPARAVWEETRDRFHLLGDPHTKNCTLSIRDARRSDAGRYFFRMEKGSIKWNYKHHRLSVNVTALTHRPNILIPGTLESGCPQNLTCSVPWACEQGTPPMISWIGTSVSPLDPSTTRSSVLTLIPQPQDHGTSLTCQVTFPGASVTTNKTVHLNVSYPPQNLTMTVFQGDGTVSTVLGNGSSLSLPEGQSLRLVCAVDAVDSNPPARLSLSWRGLTLCPSQPSNPGVLELPWVHLRDAAEFTCRAQNPLGSQQVYLNVSLQSKATSGVTQG
notes: Bought from R&D Systems; Held on the plate by protein A; also called SIGLEC 9; not shown: Fc part of the bought fusion protein
In the case of B1, the Kd in assay [1] and in assay [2] was 591 nM each time. Moreover, the binding result in assay [3] was “no binding (tested: 1 µg/mL)”.

B2: Cluster 2 fragment (tryptic glycopeptide of plasma derived vWF, AA 674 to 728/729) (peptide)
peptide: AFVLSSVDELEQQRDEIVSYLC(Maleimide‑PEG2‑Biotin)DLAPEAPPPTLPPDMAQVTVGPGLLGVSTLGPKR
modifications: also: natural O-glycans (sialylated core 2), sites not given here
notes: also called Cluster II; O-glycosylation Cluster II
On to B2, for which the binding result in assay [4] is reported as “no binding (tested: 4 µg/mL)”.

B3: Recombinant SIG-5 Fc-fusion protein (R&D Systems) (Fc fusion)
chain: EKPVYELQVQKSVTVQEGLCVLVPCSFSYPWRSWYSSPPLYVYWFRDGEIPYYAEVVATNNPDRRVKPETQGRFRLLGDVQKKNCSLSIGDARMEDTGSYFFRVERGRDVKYSYQQNKLNLEVTALIEKPDIHFLEPLESGRPTRLSCSLPGSCEAGPPLTFSWTGNALSPLDPETTRSSELTLTPRPEDHGTNLTCQMKRQGAQVTTERTVQLNVSYAPQTITIFRNGIALEILQNTSYLPVLEGQALRLLCDAPSNPPAHLSWFQGSPALNATPISNTGILELRRVRSAEEGGFTCRAQHPLGFLQIFLNLSVYSLPQLLGPSCSWEAEGLHCRCSFRARPAPSLCWRLEEKPLEGNSSQGSFKVNSSSAGPWANSSLILHGGLSSDLKVSCKAWNIYGSQSGSVLLLQGRSNLGT
notes: Bought from R&D Systems; Held on the plate by protein A; also called SIGLEC 5; not shown: Fc part of the bought fusion protein
On to B3, for which the Kd in assay [1] and in assay [5] was 494 nM in each case. Also, the binding result in assay [3] is given as “no binding (tested: 1 µg/mL)”.

B4: FVIII (Nuwiq, Octapharma) (other, UniProt P00451 20-2351, looked up)
chain: ATRRYYLGAVELSWDYMQSDLGELPVDARFPPRVPKSFPFNTSVVYKKTLFVEFTDHLFNIAKPRPPWMGLLGPTIQAEVYDTVVITLKNMASHPVSLHAVGVSYWKASEGAEYDDQTSQREKEDDKVFPGGSHTYVWQVLKENGPMASDPLCLTYSYLSHVDLVKDLNSGLIGALLVCREGSLAKEKTQTLHKFILLFAVFDEGKSWHSETKNSLMQDRDAASARAWPKMHTVNGYVNRSLPGLIGCHRKSVYWHVIGMGTTPEVHSIFLEGHTFLVRNHRQASLEISPITFLTAQTLLMDLGQFLLFCHISSHQHDGMEAYVKVDSCPEEPQLRMKNNEEAEDYDDDLTDSEMDVVRFDDDNSPSFIQIRSVAKKHPKTWVHYIAAEEEDWDYAPLVLAPDDRSYKSQYLNNGPQRIGRKYKKVRFMAYTDETFKTREAIQHESGILGPLLYGEVGDTLLIIFKNQASRPYNIYPHGITDVRPLYSRRLPKGVKHLKDFPILPGEIFKYKWTVTVEDGPTKSDPRCLTRYYSSFVNMERDLASGLIGPLLICYKESVDQRGNQIMSDKRNVILFSVFDENRSWYLTENIQRFLPNPAGVQLEDPEFQASNIMHSINGYVFDSLQLSVCLHEVAYWYILSIGAQTDFLSVFFSGYTFKHKMVYEDTLTLFPFSGETVFMSMENPGLWILGCHNSDFRNRGMTALLKVSSCDKNTGDYYEDSYEDISAYLLSKNNAIEPRSFSQNSRHQAYRYRRGEITRTTLQSDQEEIDYDDTISVEMKKEDFDIYDEDENQSPRSFQKKTRHYFIAAVERLWDYGMSSSPHVLRNRAQSGSVPQFKKVVFQEFTDGSFTQPLYRGELNEHLGLLGPYIRAEVEDNIMVTFRNQASRPYSFYSSLISYEEDQRQGAEPRKNFVKPNETKTYFWKVQHHMAPTKDEFDCKAWAYFSDVDLEKDVHSGLIGPLLVCHTNTLNPAHGRQVTVQEFALFFTIFDETKSWYFTENMERNCRAPCNIQMEDPTFKENYRFHAINGYIMDTLPGLVMAQDQRIRWYLLSMGSNENIHSIHFSGHVFTVRKKEEYKMALYNLYPGVFETVEMLPSKAGIWRVECLIGEHLHAGMSTLFLVYSNKCQTPLGMASGHIRDFQITASGQYGQWAPKLARLHYSGSINAWSTKEPFSWIKVDLLAPMIIHGIKTQGARQKFSSLYISQFIIMYSLDGKKWQTYRGNSTGTLMVFFGNVDSSGIKHNIFNPPIIARYIRLHPTHYSIRSTLRMELMGCDLNSCSMPLGMESKAISDAQITASSYFTNMFATWSPSKARLHLQGRSNAWRPQVNNPKEWLQVDFQKTMKVTGVTTQGVKSLLTSMYVKEFLISSSQDGHQWTLFFQNGKVKVFQGNQDSFTPVVNSLDPPLLTRYLRIHPQSWVHQIALRMEVLGCEAQDLY
notes: Commercial product; also called recombinant FVIII; factor VIII
The molecule B4 returned a Kd in assay [6] of 0.3 nM.

B5: Recombinant SIG-7 Fc-fusion protein (R&D Systems) (Fc fusion)
chain: QKSNRKDYSLTMQSSVTVQEGMCVHVRCSFSYPVDSQTDSDPVHGYWFRAGNDISWKAPVATNNPAWAVQEETRDRFHLLGDPQTKNCTLSIRDARMSDAGRYFFRMEKGNIKWNYKYDQLSVNVTALTHRPNILIPGTLESGCFQNLTCSVPWACEQGTPPMISWMGTSVSPLHPSTTRSSVLTLIPQPQHHGTSLTCQVTLPGAGVTTNRTIQLNVSYPPQNLTVTVFQGEGTASTALGNSSSLSVLEGQSLRLVCAVDSNPPARLSWTWRSLTLYPSQPSNPLVLELQVHLGDEGEFTCRAQNSLGSQHVSLNLSLQQEYTGKMRPVSGVLLGAVG
notes: Bought from R&D Systems; Held on the plate by protein A; also called SIGLEC 7; not shown: Fc part of the bought fusion protein
Consider B5, for which the Kd in assay [1] and in assay [7] was 371 nM each time. Besides, in assay [3], the binding result is “no binding (tested: 1 µg/mL)”.
